Test results taken from patent US20200079833A1 (AstraZeneca / MedImmune, published 2020).
Starred links: 1 amine or outer side, 2 acyl side, 3 side chain; linkers in the order of their positions; H or OH if unused. Non-standard residues stand in square brackets, D forms with d. Groups on a side chain read outwards from the residue. Primed or numbered codes have the meaning given here. No end group written: not given here. *: point of attachment. Dodecylbenzoate = dodecylbenzoyl lipid group; γGlu = O=C(O)[C@H](CCC(=O)[*:2])N[*:1]; Stearoyl = CCCCCCCCCCCCCCCCCC(=O)*; αMeF = C[C@](N)(Cc1ccccc1)C(=O)O; αMeK = C[C@](N)(CCCCN)C(=O)O; Lauroyl = CCCCCCCCCCCC(=O)*; αMeS = C[C@](N)(CO)C(=O)O; PEG2′ = not defined here; Aib = CC(C)(N)C(=O)O; Ahx = NCCCCCC(=O)O

T1: GLP-1R (INS1e assay) (UniProt P32301 22-463, limits assumed)
T1 sequence (looked up): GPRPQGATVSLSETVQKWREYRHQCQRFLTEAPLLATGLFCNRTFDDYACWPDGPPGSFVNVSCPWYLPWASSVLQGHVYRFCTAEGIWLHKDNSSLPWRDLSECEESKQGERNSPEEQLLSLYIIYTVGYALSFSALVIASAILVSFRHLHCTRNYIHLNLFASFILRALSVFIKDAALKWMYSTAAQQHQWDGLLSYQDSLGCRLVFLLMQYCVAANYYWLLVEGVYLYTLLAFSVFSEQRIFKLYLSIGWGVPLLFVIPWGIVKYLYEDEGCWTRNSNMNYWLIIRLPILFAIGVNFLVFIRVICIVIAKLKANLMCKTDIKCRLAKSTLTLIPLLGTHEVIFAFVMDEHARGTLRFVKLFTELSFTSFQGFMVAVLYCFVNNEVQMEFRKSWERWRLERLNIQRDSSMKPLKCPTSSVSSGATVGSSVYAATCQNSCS


biological target: T1, GLP-1R (INS1e assay); test: cell-based or functional assay

Binder | INS1e assay EC50 GLP-1 R n1 [nM] | INS1e assay EC50 GLP-1 R n2 [nM] | INS1e assay EC50 Mean pM GLP-1R [pM]
H[Aib]EGS[αMeF]TSDV[αMeS]S[αMeF]LEGEAA[αMeK]E[αMeF]IA[αMeF]VVK([Ahx-Ahx-Ahx-Dodecylbenzoate])GG-NH2 [SEQ ID NO 178] | 0.31 | 0.258 | 284
H[Aib]EGS[αMeF]TSDV[αMeS]S[αMeF]LEGEAA[αMeK]E[αMeF]IA[αMeF]VVK([Ahx-Ahx-Ahx-Lauroyl])GG-NH2 (N-terminus assumed; SMILES CCCCCCCCCCCC(=O)NCCCCCC(=O)NCCCCCC(=O)NCCCCCC(=O)NCCCC[C@H](NC(=O)[C@@H](NC(=O)[C@@H](NC(=O)[C@](C)(Cc1ccccc1)NC(=O)[C@H](C)NC(=O)[C@@H](NC(=O)[C@](C)(Cc1ccccc1)NC(=O)[C@H](CCC(=O)O)NC(=O)[C@](C)(CCCCN)NC(=O)[C@H](C)NC(=O)[C@H](C)NC(=O)[C@H](CCC(=O)O)NC(=O)CNC(=O)[C@H](CCC(=O)O)NC(=O)[C@H](CC(C)C)NC(=O)[C@](C)(Cc1ccccc1)NC(=O)[C@H](CO)NC(=O)[C@](C)(CO)NC(=O)[C@@H](NC(=O)[C@H](CC(=O)O)NC(=O)[C@H](CO)NC(=O)[C@@H](NC(=O)[C@](C)(Cc1ccccc1)NC(=O)[C@H](CO)NC(=O)CNC(=O)[C@H](CCC(=O)O)NC(=O)C(C)(C)NC(=O)[C@@H](N)Cc1c[nH]cn1)[C@@H](C)O)C(C)C)[C@@H](C)CC)C(C)C)C(C)C)C(=O)NCC(=O)NCC(N)=O) [SEQ ID NO 169] | 0.0931 | 0.269 | 181
H[Aib]EGS[αMeF]TSDV[αMeS]S[αMeF]LEGEAA[αMeK]E[αMeF]IA[αMeF]VVK([PEG2′-PEG2′-PEG2′-Dodecylbenzoate])GG-NH2 [SEQ ID NO 181] | 0.0453 | 0.114 | 79.7
H[Aib]EGS[αMeF]TSDV[αMeS]S[αMeF]LEGEAA[αMeK]E[αMeF]IA[αMeF]VVK([PEG2′-Dodecylbenzoate])GG-NH2 [SEQ ID NO 179] | 0.336 | 0.345 | 340
H[Aib]EGS[αMeF]TSDV[αMeS]S[αMeF]LEGEAA[αMeK]E[αMeF]IA[αMeF]VVK([PEG2′-PEG2′-Stearoyl])GG-NH2 [SEQ ID NO 198] | 1.38 | 0.89 | 1140
H[Aib]EGS[αMeF]TSDV[αMeS]S[αMeF]LEGEAA[αMeK]E[αMeF]IA[αMeF]VVK([PEG2′-PEG2′-Stearoyl])GG-NH2 [SEQ ID NO 189] | 0.114 | 0.173 | 144
H[Aib]EGS[αMeF]TSDV[αMeS]S[αMeF]LEGEAA[αMeK]E[αMeF]IA[αMeF]VVK([PEG2′-PEG2′-PEG2′-Lauroyl])GG-NH2 [SEQ ID NO 172] | 0.0396 | 0.028 | 33.8
H[Aib]EGS[αMeF]TSDV[αMeS]S[αMeF]LEGEAA[αMeK]E[αMeF]IA[αMeF]VVK([PEG2′-PEG2′-PEG2′-Stearoyl])GG-NH2 [SEQ ID NO 190] | 0.0397 | 0.0485 | 44.1
H[Aib]EGS[αMeF]TSDV[αMeS]S[αMeF]LEGEAA[αMeK]E[αMeF]IA[αMeF]VVK([PEG2′-PEG2′-Dodecylbenzoate])GG-NH2 [SEQ ID NO 180] | 0.0678 | 0.0506 | 59.2
H[Aib]EGS[αMeF]TSDV[αMeS]S[αMeF]LEGEAA[αMeK]E[αMeF]IA[αMeF]VVK([Ahx-Ahx-Dodecylbenzoate])GG-NH2 [SEQ ID NO 177] | 0.266 | 0.755 | 510
H[Aib]EGS[αMeF]TSDV[αMeS]S[αMeF]LEGEAA[αMeK]E[αMeF]IA[αMeF]VVK([Ahx-Ahx-Lauroyl])GG-NH2 (N-terminus assumed; SMILES CCCCCCCCCCCC(=O)NCCCCCC(=O)NCCCCCC(=O)NCCCC[C@H](NC(=O)[C@@H](NC(=O)[C@@H](NC(=O)[C@](C)(Cc1ccccc1)NC(=O)[C@H](C)NC(=O)[C@@H](NC(=O)[C@](C)(Cc1ccccc1)NC(=O)[C@H](CCC(=O)O)NC(=O)[C@](C)(CCCCN)NC(=O)[C@H](C)NC(=O)[C@H](C)NC(=O)[C@H](CCC(=O)O)NC(=O)CNC(=O)[C@H](CCC(=O)O)NC(=O)[C@H](CC(C)C)NC(=O)[C@](C)(Cc1ccccc1)NC(=O)[C@H](CO)NC(=O)[C@](C)(CO)NC(=O)[C@@H](NC(=O)[C@H](CC(=O)O)NC(=O)[C@H](CO)NC(=O)[C@@H](NC(=O)[C@](C)(Cc1ccccc1)NC(=O)[C@H](CO)NC(=O)CNC(=O)[C@H](CCC(=O)O)NC(=O)C(C)(C)NC(=O)[C@@H](N)Cc1c[nH]cn1)[C@@H](C)O)C(C)C)[C@@H](C)CC)C(C)C)C(C)C)C(=O)NCC(=O)NCC(N)=O) [SEQ ID NO 168] | 0.189 | 0.462 | 326
H[Aib]EGS[αMeF]TSDV[αMeS]S[αMeF]LEGEAA[αMeK]E[αMeF]IA[αMeF]VVK([PEG2′-PEG2′-Lauroyl])GG-NH2 [SEQ ID NO 171] | 0.0817 | 0.175 | 128
H[Aib]EGS[αMeF]TSDV[αMeS]S[αMeF]LEGEAA[αMeK]E[αMeF]IA[αMeF]VVK([PEG2′-Lauroyl])GG-NH2 [SEQ ID NO 170] | 0.548 | 0.376 | 462
H[Aib]EGS[αMeF]TSDV[αMeS]S[αMeF]LEGEAA[αMeK]E[αMeF]IA[αMeF]VVK([PEG2′-PEG2′-PEG2′-Stearoyl])GG-NH2 [SEQ ID NO 199] | 0.787 | 2.13 | 1460
H[Aib]EGS[αMeF]TSDV[αMeS]S[αMeF]LEGEAA[αMeK]E[αMeF]IA[αMeF]VVK([γGlu-γGlu-γGlu-Stearoyl])GG-NH2 (N-terminus assumed; SMILES CCCCCCCCCCCCCCCCCC(=O)N[C@@H](CCC(=O)N[C@@H](CCC(=O)N[C@@H](CCC(=O)NCCCC[C@H](NC(=O)[C@@H](NC(=O)[C@@H](NC(=O)[C@](C)(Cc1ccccc1)NC(=O)[C@H](C)NC(=O)[C@@H](NC(=O)[C@](C)(Cc1ccccc1)NC(=O)[C@H](CCC(=O)O)NC(=O)[C@](C)(CCCCN)NC(=O)[C@H](C)NC(=O)[C@H](C)NC(=O)[C@H](CCC(=O)O)NC(=O)CNC(=O)[C@H](CCC(=O)O)NC(=O)[C@H](CC(C)C)NC(=O)[C@](C)(Cc1ccccc1)NC(=O)[C@H](CO)NC(=O)[C@](C)(CO)NC(=O)[C@@H](NC(=O)[C@H](CC(=O)O)NC(=O)[C@H](CO)NC(=O)[C@@H](NC(=O)[C@](C)(Cc1ccccc1)NC(=O)[C@H](CO)NC(=O)CNC(=O)[C@H](CCC(=O)O)NC(=O)C(C)(C)NC(=O)[C@@H](N)Cc1c[nH]cn1)[C@@H](C)O)C(C)C)[C@@H](C)CC)C(C)C)C(C)C)C(=O)NCC(=O)NCC(N)=O)C(=O)O)C(=O)O)C(=O)O) [SEQ ID NO 184] | 0.351 | 0.501 | 426
